Biological target: TBK1 (UniProt Q9UHD2)
Assay: co-immunoprecipitation, immunoblot
Settings: reference: wild-type IRF3 + TBK1 + BLK; sites Y107

Substance: IRF3 (from UniProt Q14653) IRF3(Y107F) + TBK1 + BLK
- binding against the reference: weaker
